# Measured values taken from the DeepSol protein solubility set.
# Experiment: soluble on expression in E. coli; label from the status in PepcDB or PDB records
row,Sequence,soluble on expression in E. coli
1,MKKIHYTDNYLLKPYHPVTIHVAGAGGTGSQVITNLARMNVALQALGHPGLHVTVFDPDIITEANIGRQLFSEMELGQGKATAAVTRVNRFFGTTWTAENCRYPVRKTQENGDDRTKPANIIITCTDNTRSRLELWRFLKKYRETSVNNERAVYYWMDFGNAQTTGQVFIGTVRNKIRQPASKEFMPVPGMNVITEEVNYSTIEEKDSEPSCSLAEALERQDLYINSILAQVGCDILWRMFKEGRTLYRGAYINLDTLRVNPIPV,not soluble
2,MKKIILTIGCPGSGKSTWAREFIAKNPGFYNINRDDYRQSIMAHEERDEYKYTKKKEGIVTGMQFDTAKSILYGGDSVKGVIISDTNLNPERRLAWETFAKEYGWKVEHKVFDVPWTELVKRNSKRGTKAVPIDVLRSMYKSMREYLGLPVYNGTPGKPKAVIFDVDGTLAKMNGRGPYDLEKCDTDVINPMVVELSKMYALMGYQIVVVSGRESGTKEDPTKYYRMTRKWVEDIAGVPLVMQCQREQGDTRKDDVVKEEIFWKHIAPHFDVKLAIDDRTQVVEMWRRIGVECWQVASGDF,soluble
3,MKKIQTPNAKGEVRIIAGLWRGRKLPVLNSEGLRPTGDRVKETLFNWLMPYIHQSECLDGFAGSGSLGFEALSRQAKKVTFLELDKTVANQLKKNLQTLKCSSEQAEVINQSSLDFLKQPQNQPHFDVVFLDPPFHFNLAEQAISLLCENNWLKPNALIYVETEKDKPLITPENWTLLKEKTTGIVSYRLYQNLEHHHHHH,soluble
4,MKKLAIAGALLLLAGCAEVENYNNVVKTPAPDWLAGYWQTKGPQRALVSPEAIGSLIVTKEGDTLDCRQWQRVIAVPGKLTLMSDDLTNVTVKRELYEVERDGNTIEYDGMTMERVDRPTAECAAALDKAPLPTPLPLEHHHHHH,soluble
5,MKKLEVKDLKENFFEAIGKEWMLVTAGTKEKFNTMTASWGGIGWLWNKPVAFVFVRPERYTYEFIEKSDYLTLSFLGEANKKIHAVCGSKSGRDTDKVKATGLKPVFTEQGNVLFEQARLSLEGRKLYADNIKPECFLDKESLEKWYDDAHGGFHKMYIVEIENIWEGD,not soluble
6,MKKLKMKKLISLLLTLTMILALTACGAKETGKSQDESDLNYVKSKGKLIIGYTNYAPMNYTDENGVFTGFDTELAILTCEKLGVEPEFVEINWDTKEVELNAKSIDCIWNGLTIDDDRKAKMEITQPYVKNAQVVLVKEGTEYNGTESLIGKTVVAEQSSAGEKTIMADENLKKANYVPKTLQTDCLMELKSGTADAAVLDLTLAKTMTGEGTSYEDIVIVDYLAEENYGVAFRKGSDICAEVNKIFDDFLADGTMAALAEKYGLELAE,not soluble
7,MKKLTKGLGILLASSLVLGLAACGGGSDDKALSTEKITIGTTAGPHQQIAEEVQKLAKKDGLEIKIKTFDDYNTPNTALNDGDLDANNYQTIPFLEQQKKDKGYKLDVAFKTVAFPMGIYSNDIKDLKNLKKGDKIAVPNDPSNEYRGLKLFEDAGVIKLKDGVEEKATKKDIAENPLDLEIVELEASQIPAQLDEVAAAAINTNFAMGAGLSINKDAIYHEPTKDNPYPNVFVVRSANKDDEVVKTLEKYYHSDEVKAFIEKEFNGSVVPAFLEHHHHHH,soluble
8,MKKMLTFLTTCALSFGVSAQSWEETTEKARGQTVYFHAWGGSQEINSYLRWSADLLKSRYGVTLQHVKVTDIAETTTRLIAEKAAGKNEQGSVDLVWINGENFKSMKNNQLLYGPFVEDLPNWPKVDKSLPVDSDFSEPTEGLEAPWGVGQLVFIHDKQQVNNPPASFAELLSYAQAFPNRISYPQPPEFHGTSFLKAALIELTHYAPELNQAVEPATFEQLTQPLWQYLDELHAVAWRKGKQFPAGSAQMMQLLDDGQLDLAITFNPNAVFSAQATGKLAPTAQSYAMKKGALTNIHFLAIPWNANAKEGALVAINFLLSDEAQSRKGDLSIWGDPSILKPQFLTGSAKNTILFPAIAEPHPSWQSALEAEWQKRYGNSLK,not soluble
9,MKKSLKQKIVSSLLAVSLAVSLAPIGQANADSTSEIKQTSSITKQVDASRAIEHIRFLSETIGPRPGGTKSEEWASRYVGMQLKSMGYEVEYQPFQVPDQYVGFIESPLSTKRNWQTGAAPNALISTESVTAPLIFVQGGTKLEDIPNEVNGKIVLFERGTTVADYNKQVENAVSKGAKGVLLYSLIGGRGNYGQTFNPRLTKKQSIPVFGLAYAQGNAFKEEIAKKGTTILSLKARHESNLTSLNVIAKKKPKNSTGNEKAVVVSSHYDSVVGAPGANDNASGTGLVLELARAFQNVETDKEIRFIAFGSEETGLLGSDYYVNSLSPKERDRILGVFNADMVATNYDKAKNLYAMMPNGSPNLVTDAALQAGKQLNNDLVLQGKFGSSDHVPFAEVGIPAALFIWMGVDSWNPLIYHIEKVYHTPQDNVFENISPERMKMALEVIGTGVYNTLQQSVTQTEQKAA,not soluble
10,MKKVIIAGNGPSLKEIDYSRLPNDFDVFRCNQFYFEDKYYLGKKCKAVFYNPSLFFEQYYTLKHLIQNQEYETELIMCSNYNQAHLENENFVKTFYDYFPDAHLGYDFFKQLKDFNAYFKFHEIQFNQRITSGVYMCAVAIALGYKEIYLSGIDFYQNGSSYAFDTKQKNLLKLAPNFKNDNSHYIGHSKNTDIKALEFLEKTYKIKLYCLCPNSLLANFIGLAPNLNSNFIIQEKNNYTKDILIPSSEAYGKFSKNINFKKIKIKENIYYKLIKDLLRLPSDIKHYFKGK,soluble
11,MKKVLIANRGEIAVRIIRACRDLGIQTVAIYSEGDKDALHTQIADEAYCVGPTLSKDSYLNIPNILSIATSTGCDGVHPGYGFLAENADFAELCEACQLKFIGPSYQSIQKMGIKDVAKAEMIKANVPVVPGSDGLMKDVSEAKKIAKKIGYPVIIKATAGGGGKGIRVARDEKELETGFRMTEQEAQTAFGNGGLYMEKFIENFRHIEIQIVGDSYGNVIHLGERDCTIQRRMQKLVEEAPSPILDDETRREMGNAAVRAAKAVNYENAGTIEFIYDLNDNKFYFMEMNTRIQVEHPVTEMVTGIDLVKLQLQVAMGDVLPYKQEDIKLTGHAIEFRINAENPYKNFMPSPGKIEQYLAPGGYGVRIESACYTNYTIPPYYDSMVAKLIIHEPTRDEAIMAGIRALSEFVVLGIDTTIPFHIKLLNNDIFRSGKFNTNFLEQNSIMNDEG,soluble
12,MKKVLITGFEPFGGDSKNPTEQIAKYFDRKQIGNAMVYGRVLPVSVKRATIELKRYLEEIKPEIVINLGLAPTYSNITVERIAVNIIDARIPDNDGYQPIDEKIEEDAPLAYMATLPVRAITKTLRDNGIPATISYSAGTYLCNYVMFKTLHFSKIEGYPLKAGFIHVPYTPDQVVNKFFLLGKNTPSMCLEAEIKAIELAVKVSLDYLEKDRDDIKIPL,soluble
13,MKLAVITDSSVYLPQDFVQREDLFILDIDITIDGKTYIEGKNLSLDEFYTKMAASKELPKTSQPNLAELDDLLTNLEEEAYTHVIGLFLSGGISGFHQNIQYLIAEHDKLEIAFPDTKITSSPMGLMVMEALKWGREEIAFEQILVNLQVMIDKTNAFIMVDDLNHLVKGGRLSNGSALLGNLLSIKPILYFTNGRIEVFEKVRTEKKAIKRLISIIDEVTADGSYMVYIIHANARGKAEDLQKRLVDHGYTKNLAIVPFNGVIATHLGEGAIALGAIPII,not soluble
14,MKLAYWMYAGPAHIGTLRISSSFRNVHAIMHAPLGDDYFNVMRSMLERERNFTPVTTSVVDRNVLARGSQEKVIDNILRKDTEERPDLIVLTPTCTSSILQEDLQNFVERAKESAQCDVLLADVNHYRVNELQAADRTLEQIVRFYLDRAQRQGTLPSQRTEQPSVNILGMTTLGFHNRHDTTELQRLMADLGITVNAVIPAGASVEELQHLPRAWFNLVPYREVGLLTAQYLQDTFDQPMVAIAPMGITATADCIRQIQQVLNQQGAAVDFEPFIDRQTRFASEAAWFSHSIDCQNLTGKRAVVFGDNTHAAAFTKILSREMGIHVVLAGTYCKHDADWFEAEVAGYCDRVLISDDHNAIADAIAELEPAAIFGTQMERHVGKRLNIPCGVIAAPVHIQNFPVGYRPFVGYEGANQIVDLVYNSFTLGMEDHLLEIFGGHDTKEVLTKTVSAGSDLDWKPDGLTELNRIPGFVRGKVKRNTEKYAREQGLTAITAEVLYAAKEALGALEHHHHHH,not soluble
15,MKLGILHFTDSHIKSATDWILSEFSSLVASVKTIYEECDRIYIVFTGDVVYSGSEEEYILASKFLNSIRSLLKTLYKDKVYEQIIFTPGNHDCNFNMDRQARKML,not soluble
